Results as given in patent US20150291695A1 (CANCER RESEARCH TECHNOLOGY, published 2015).

What was measured:
[1] = target: T1, αvβ6 integrin, immobilized (UniProt P06756 31-992; P18564 22-709); assay: ELISA on immobilized αvβ6, rabbit anti-MFE detection
T1 construct: also called immobilized αvβ6; rsαvβ6

[2] = target: T2, α5β1 integrin on A375Ppuro cells (UniProt P08648 42-1049; P05556 21-798); assay: flow cytometry on A375Ppuro cells, which express α5β1
T2 construct: whole, on cells

[3] = target: T3, αvβ3 integrin on A375Ppuro cells (UniProt P06756 31-1048; P05106 27-788); assay: flow cytometry on A375Ppuro cells, which express αvβ3
T3 construct: whole, on cells
T3 sequence (P06756 31-1048, chain 1 of 2): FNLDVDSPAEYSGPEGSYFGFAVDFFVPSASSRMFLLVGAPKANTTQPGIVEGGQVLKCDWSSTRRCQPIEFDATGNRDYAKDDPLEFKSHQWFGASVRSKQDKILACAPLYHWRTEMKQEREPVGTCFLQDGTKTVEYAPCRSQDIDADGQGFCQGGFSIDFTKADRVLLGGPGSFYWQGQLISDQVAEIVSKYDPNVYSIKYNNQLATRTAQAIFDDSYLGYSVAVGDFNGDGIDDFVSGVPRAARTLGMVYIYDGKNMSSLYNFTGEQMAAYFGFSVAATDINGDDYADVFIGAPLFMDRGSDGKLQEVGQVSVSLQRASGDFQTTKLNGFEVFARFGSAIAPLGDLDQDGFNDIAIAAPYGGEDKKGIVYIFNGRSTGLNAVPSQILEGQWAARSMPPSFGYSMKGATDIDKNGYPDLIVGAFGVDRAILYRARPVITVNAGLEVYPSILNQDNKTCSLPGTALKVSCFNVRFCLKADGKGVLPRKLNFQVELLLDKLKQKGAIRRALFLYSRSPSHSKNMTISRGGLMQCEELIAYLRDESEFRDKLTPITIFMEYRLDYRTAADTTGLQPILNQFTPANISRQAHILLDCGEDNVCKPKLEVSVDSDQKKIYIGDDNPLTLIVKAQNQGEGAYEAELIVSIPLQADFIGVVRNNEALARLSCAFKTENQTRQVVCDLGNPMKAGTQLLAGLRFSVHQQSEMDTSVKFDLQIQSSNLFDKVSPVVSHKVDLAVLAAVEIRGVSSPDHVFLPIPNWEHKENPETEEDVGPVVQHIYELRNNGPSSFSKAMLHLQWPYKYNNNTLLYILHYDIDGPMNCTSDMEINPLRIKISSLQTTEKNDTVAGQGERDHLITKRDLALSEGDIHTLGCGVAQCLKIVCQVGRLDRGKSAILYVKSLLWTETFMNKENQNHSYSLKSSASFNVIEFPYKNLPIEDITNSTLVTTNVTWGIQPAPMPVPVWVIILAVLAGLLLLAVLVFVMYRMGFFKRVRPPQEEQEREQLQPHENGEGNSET
T3 sequence (P05106 27-788, chain 2 of 2): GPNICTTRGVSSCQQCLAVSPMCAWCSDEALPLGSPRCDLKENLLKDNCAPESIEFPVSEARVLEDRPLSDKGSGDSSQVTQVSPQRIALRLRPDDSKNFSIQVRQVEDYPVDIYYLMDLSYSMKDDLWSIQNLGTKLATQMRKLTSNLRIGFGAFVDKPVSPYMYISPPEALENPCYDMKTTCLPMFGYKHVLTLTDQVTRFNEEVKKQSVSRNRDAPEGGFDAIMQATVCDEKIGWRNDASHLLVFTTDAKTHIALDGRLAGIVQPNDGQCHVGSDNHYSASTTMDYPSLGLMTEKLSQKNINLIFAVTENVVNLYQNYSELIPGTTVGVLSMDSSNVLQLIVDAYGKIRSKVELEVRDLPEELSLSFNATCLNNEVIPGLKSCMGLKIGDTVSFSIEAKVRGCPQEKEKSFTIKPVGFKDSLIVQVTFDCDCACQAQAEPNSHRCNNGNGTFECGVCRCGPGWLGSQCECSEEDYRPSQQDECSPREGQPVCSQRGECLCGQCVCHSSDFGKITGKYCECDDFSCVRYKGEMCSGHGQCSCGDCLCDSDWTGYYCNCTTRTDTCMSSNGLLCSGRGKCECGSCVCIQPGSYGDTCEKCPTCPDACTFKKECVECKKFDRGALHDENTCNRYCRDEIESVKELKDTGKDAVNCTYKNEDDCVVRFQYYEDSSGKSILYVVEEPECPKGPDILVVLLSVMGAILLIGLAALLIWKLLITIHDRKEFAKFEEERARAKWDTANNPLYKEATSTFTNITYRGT

[4] = target: T4, αvβ3 integrin, immobilized (UniProt P06756 31-1048; P05106 27-788); assay: ELISA on immobilized αvβ3, rabbit anti-MFE detection
T4 construct: also called immobilized αvβ3
T4 sequence (P06756 31-1048, chain 1 of 2): as the sequence (P06756 31-1048, chain 1 of 2) above
T4 sequence (P05106 27-788, chain 2 of 2): as the sequence (P05106 27-788, chain 2 of 2) above

[5] = target: T5, αvβ5 integrin on A375Ppuro cells (UniProt P06756 31-1048; P18084 24-799); assay: flow cytometry on A375Ppuro cells, which express αvβ5
T5 construct: whole, on cells
T5 sequence (P06756 31-1048, chain 1 of 2): as the sequence (P06756 31-1048, chain 1 of 2) above
T5 sequence (P18084 24-799, chain 2 of 2): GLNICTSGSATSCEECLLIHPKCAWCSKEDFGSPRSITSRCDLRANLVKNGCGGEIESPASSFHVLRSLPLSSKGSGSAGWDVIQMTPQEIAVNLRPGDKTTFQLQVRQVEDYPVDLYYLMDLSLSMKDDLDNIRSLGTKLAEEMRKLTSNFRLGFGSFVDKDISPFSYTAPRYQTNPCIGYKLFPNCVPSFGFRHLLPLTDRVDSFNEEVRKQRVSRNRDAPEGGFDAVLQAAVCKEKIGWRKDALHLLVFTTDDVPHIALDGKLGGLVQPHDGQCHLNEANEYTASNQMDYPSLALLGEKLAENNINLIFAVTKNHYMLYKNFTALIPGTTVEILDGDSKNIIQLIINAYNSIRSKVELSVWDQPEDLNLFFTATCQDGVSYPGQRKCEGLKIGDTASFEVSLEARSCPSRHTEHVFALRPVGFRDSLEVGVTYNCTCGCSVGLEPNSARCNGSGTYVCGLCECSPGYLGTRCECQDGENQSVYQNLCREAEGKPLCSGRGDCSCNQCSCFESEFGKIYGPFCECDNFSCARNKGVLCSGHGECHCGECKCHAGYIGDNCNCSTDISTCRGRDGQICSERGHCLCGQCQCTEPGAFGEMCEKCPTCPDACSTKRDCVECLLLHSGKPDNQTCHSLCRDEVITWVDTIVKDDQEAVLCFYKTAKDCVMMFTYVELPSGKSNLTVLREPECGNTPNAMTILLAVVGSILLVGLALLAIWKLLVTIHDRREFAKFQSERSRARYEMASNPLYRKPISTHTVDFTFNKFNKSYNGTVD

[6] = target: T6, carcinoembryonic antigen on LS-174T cells (human, UniProt P06731 35-702); assay: flow cytometry on LS174T cells
T6 construct: whole, on cells; also called CEA on LS174T cells; CEA-expressing LS-174T cells
T6 sequence: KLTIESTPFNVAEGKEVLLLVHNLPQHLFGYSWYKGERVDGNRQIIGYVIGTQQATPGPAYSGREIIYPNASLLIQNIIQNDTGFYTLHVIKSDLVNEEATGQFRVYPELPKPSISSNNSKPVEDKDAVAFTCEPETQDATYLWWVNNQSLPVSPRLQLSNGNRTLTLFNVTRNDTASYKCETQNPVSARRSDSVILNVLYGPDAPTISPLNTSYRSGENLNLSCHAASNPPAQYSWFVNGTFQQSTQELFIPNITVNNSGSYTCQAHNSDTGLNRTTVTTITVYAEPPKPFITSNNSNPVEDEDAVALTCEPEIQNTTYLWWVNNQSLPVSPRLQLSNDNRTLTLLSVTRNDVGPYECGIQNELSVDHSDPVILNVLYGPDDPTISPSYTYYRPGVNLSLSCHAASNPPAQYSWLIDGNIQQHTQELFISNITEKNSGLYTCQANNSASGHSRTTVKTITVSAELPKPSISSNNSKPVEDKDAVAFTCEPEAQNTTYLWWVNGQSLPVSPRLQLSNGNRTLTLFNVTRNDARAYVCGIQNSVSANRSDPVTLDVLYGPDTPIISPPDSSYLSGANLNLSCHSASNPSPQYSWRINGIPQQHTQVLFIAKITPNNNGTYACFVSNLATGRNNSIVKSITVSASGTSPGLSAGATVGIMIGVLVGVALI

[7] = target: T7, carcinoembryonic antigen, immobilized (UniProt P06731 35-685); assay: ELISA on immobilized CEA, rabbit anti-MFE detection, three concentrations
T7 construct: also called CEA; immobilized CEA
T7 sequence: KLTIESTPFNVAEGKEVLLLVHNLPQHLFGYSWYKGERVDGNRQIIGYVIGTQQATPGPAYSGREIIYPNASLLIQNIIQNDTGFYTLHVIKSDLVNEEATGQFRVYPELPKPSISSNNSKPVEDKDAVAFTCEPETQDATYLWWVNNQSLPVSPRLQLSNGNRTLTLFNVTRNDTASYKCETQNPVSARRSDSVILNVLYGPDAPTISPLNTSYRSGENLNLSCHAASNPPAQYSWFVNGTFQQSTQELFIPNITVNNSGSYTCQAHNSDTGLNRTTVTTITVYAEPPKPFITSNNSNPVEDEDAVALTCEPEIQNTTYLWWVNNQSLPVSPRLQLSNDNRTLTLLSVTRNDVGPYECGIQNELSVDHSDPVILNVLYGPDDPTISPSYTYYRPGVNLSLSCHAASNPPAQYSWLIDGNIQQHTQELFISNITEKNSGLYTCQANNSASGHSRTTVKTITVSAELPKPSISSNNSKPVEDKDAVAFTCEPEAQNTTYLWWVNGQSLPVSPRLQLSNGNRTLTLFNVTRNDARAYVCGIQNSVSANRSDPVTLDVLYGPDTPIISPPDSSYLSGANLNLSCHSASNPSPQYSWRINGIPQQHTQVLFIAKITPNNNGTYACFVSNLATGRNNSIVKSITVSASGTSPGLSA

[8] = target: T8, αvβ8 integrin on A375Ppuro cells (UniProt P06756 31-1048; P26012 43-769); assay: flow cytometry on A375Ppuro cells, which express αvβ8
T8 construct: whole, on cells
T8 sequence (P06756 31-1048, chain 1 of 2): as the sequence (P06756 31-1048, chain 1 of 2) above
T8 sequence (P26012 43-769, chain 2 of 2): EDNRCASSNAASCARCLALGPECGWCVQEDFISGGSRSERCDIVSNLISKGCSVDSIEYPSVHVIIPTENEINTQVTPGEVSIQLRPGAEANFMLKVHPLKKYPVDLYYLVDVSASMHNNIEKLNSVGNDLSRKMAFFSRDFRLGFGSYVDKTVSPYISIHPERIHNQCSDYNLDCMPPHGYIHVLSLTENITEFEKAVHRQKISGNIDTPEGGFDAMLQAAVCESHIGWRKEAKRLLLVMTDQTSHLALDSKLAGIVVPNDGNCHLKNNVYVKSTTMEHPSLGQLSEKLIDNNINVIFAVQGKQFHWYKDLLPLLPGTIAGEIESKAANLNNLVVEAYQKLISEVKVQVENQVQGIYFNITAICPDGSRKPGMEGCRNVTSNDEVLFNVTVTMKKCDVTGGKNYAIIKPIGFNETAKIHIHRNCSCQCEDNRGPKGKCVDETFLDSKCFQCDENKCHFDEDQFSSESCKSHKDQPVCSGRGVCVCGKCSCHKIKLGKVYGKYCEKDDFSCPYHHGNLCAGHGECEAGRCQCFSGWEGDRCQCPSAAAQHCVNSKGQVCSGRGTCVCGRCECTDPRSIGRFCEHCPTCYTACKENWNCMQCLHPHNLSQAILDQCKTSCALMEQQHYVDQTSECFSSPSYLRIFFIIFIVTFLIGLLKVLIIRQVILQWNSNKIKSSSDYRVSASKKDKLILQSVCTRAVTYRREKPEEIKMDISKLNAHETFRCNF

B1: MFE-23 scFv (scFv)
scFv: QVKLQQSGAELVRSGTSVKLSCTASGFNIKDSYMHWLRQGPEQGLEWIGWIDPENGDTEYAPKFQGKATFTTDTSSNTAYLQLSSLTSEDTAVYYCNEGTPTGPYYFDYWGQGTTVTVSSGGGGSGGGGSGGGGSENVLTQSPAIMSASPGEKVTITCSASSSVSYMHWFQQKPGTSPKLWIYSTSNLASGVPARFSGSGSGTSYSLTISRMEAEDAATYYCQQRSSYPLTFGAGTKLELKRAAAHHHHHH
notes: also called parent MFE
[1]
  binding result: no binding (tested: 10 µg/ml)

B2: NFEVP1 (scFv)
scFv: QVKLQQSGAELVRSGTSVKLSCTASGFNIKDSYMHWLRQGPEQGLEWIGWIDPENGDTEYAPKFQGKATFTTDTSSNTAYLQLSSLTSEDTAVYYCNEGTPTAVPNLRGDLQVLAQKVAGPYPFDYWGQGTTVTVSSGGGGSGGGGSGGGGSENVLTQSPAIMSASPGEKVTITCSASSSVSYMHWFQQKPGTSPKLWIYSTSNLASGVPARFSGSGSGTSYSLTISRMEAEDAATYYCQQRSSYPLTFGAGTKLELKRAAAHHHHHH
[2]
  binding result: no binding
[3]
  binding result: no binding
[4]
  binding result: no binding (tested: 20 µg/ml)
[5]
  binding result: no binding
[6]
  binding result: no binding (tested: 50 µg/ml)
[7]
  binding result: no binding
[8]
  binding result: no binding
